B1: HDV Ribozyme (parent)
chain: GGCCGGCAUGGUCCCAGCCUCCUCGCUGGCGCCGGCUGGGCAACAUUCCGAGGGGACCGUCCCCUCGGUAAUGGCGAAUGGGACCCA

Variants of: B1
Test: self-cleavage, relative activity (ratio to wild type); higher = more cleavage; co-transcriptional

In order of rising self-cleavage:
1. GGCCGGCAUGGUCCCAGCCUCCUCGCUGGCGCCGGCUGGGCUACAUUCCGAGGGGACCGUCCCCUCGGUAAUGGCGAAUGGAACCCA  0.157
2. GGCCGGCAUGGUCCCAGCCUCCUCGCUGGCGCCGGCUGGGCUACAUUCCGAGGGGACCGUCCCCUCGGUAAUGGCGACUGGGACCCA  0.169
3. GGCCGGCAUGGUCCCAGCCUCCUCGCUGGCGCCGGCUGGGCUACAUUCCGAGGGGACCGUCCCCUCGGUAAUGGCGAAUGGGAUCCA  0.181
4. GGCCGGCAUGGUCCCAGCCUCCUCGCUGGCGCCGGCUGGGCACCAUUCCGAGGGGACCGUCCCCUCGAUAAUGGCGAAUGGGACCCA  0.268
5. GGCCGGCAUGGUCCCAGCCUCCUCGCUGGCGCCGGCUGGGCUACAUUCCGAGGGGACCGUCCCCUCGGUAAUGGCGAUUGGGACCCA  0.284
6. GGCCGGCAUGGUCCCAGCCUCCUCGCUGGCGCCGGCUGGGCACCAUUCCCAGGGGACCGUCCCCUCGGUAAUGGCGAAUGGGACCCA  0.284
7. GGCCGGCAUGGUCCCAGCCUCCUCGCUGGCGCCGGCUGGGCACCAUUCCGAGGGCACCGUCCCCUCGGUAAUGGCGAAUGGGACCCA  0.312
8. GGCCGGCAUGGUCCCAGCCUCCUCGCUGGCGCCGGCUGGGCUACAUUCCGAGGGGACCGUCCCCUCGGUUAUGGCGAAUGGGACCCA  0.312
9. GGCCGGCAUGGUCCCAGCCUCCUCGCUGGCGCCGGCUGGGCACCAUUCCGAGGGGACCGUCCCCUCGGUAAUGGCGGAUGGGACCCA  0.317
10. GGCCGGCAUGGUCCCAGCCUCCUCGCUGGCGCCGGCUGGGCUACAUUCCGAGGGGACCGUCCCCUCGGUAAGGGCGAAUGGGACCCA  0.322
11. GGCCGGCAUGGUCCCAGCCUCCUCGCUGGCGCCGGCUGGGCUACAUUCCGAGGGGACCGUCCACUCGGUAAUGGCGAAUGGGACCCA  0.325
12. GGCCGGCAUGGUCCCAGCCUCCUCGCUGGCGCCGGCUGGGCUACAUUCCGAGGGGACCGUCCCCUCGGAAAUGGCGAAUGGGACCCA  0.364
13. GGCCGGCAUGGUCCCAGCCUCCUCGCUGGCGCCGGCUGGGCUACAUUCCGAGGGGACCGUCCCCUCGGUAUUGGCGAAUGGGACCCA  0.369
14. GGCCGGCAUGGUCCCAGCCUCCUCGCUGGCGCCGGCUGGGCUACAUUCCGAGGGGACCGUCCCCUCGGUAAUUGCGAAUGGGACCCA  0.378
15. GGCCGGCAUGGUCCCAGCCUCCUCGCUGGCGCCGGCUGGGCUACAUUCCAAGGGGACCGUCCCCUCGGUAAUGGCGAAUGGGACCCA  0.383
16. GGCCGGCAUGGUCCCAGCCUCCUCGCUGGCGCCGGCUGGGCACCAUUCCGAGGGGACCGUCCCCUCGGUAAUAGCGAAUGGGACCCA  0.407
17. GGCCGGCAUGGUCCCAGCCUCCUCGCUGGCGCCGGCUGGGCACCAUUCCGAGGGGACCGUCCCGUCGGUAAUGGCGAAUGGGACCCA  0.415
18. GGCCGGCAUGGUCCCAGCCUCCUCGCUGGCGCCGGCUGGGCUACAUUCCGAGGGGACCGUCCCCACGGUAAUGGCGAAUGGGACCCA  0.434
19. GGCCGGCAUGGUCCCAGCCUCCUCGCUGGCGCCGGCUGGGCUACAUUCCGAGGGGACCGUCCCCUCGGCAAUGGCGAAUGGGACCCA  0.437
20. GGCCGGCAUGGUCCCAGCCUCCUCGCUGGCGCCGGCUGGGCUACAAUCCGAGGGGACCGUCCCCUCGGUAAUGGCGAAUGGGACCCA  0.443
21. GGCCGGCAUGGUCCCAGCCUCCUCGCUGGCGCCGGCUGGGCUACAUUCCGAGGUGACCGUCCCCUCGGUAAUGGCGAAUGGGACCCA  0.465
22. GGCCGGCAUGGUCCCAGCCUCCUCGCUGGCGCCGGCUGGGCACCAUUCCGAGGGGAUCGUCCCCUCGGUAAUGGCGAAUGGGACCCA  0.491
23. GGCCGGCAUGGUCCCAGCCUCCUCGCUGGCGCCGGCUGGGCUACAUUCCGAGGGGACCGUCCCCUCGGGAAUGGCGAAUGGGACCCA  0.519
24. GGCCGGCAUGGUCCCAGCCUCCUCGCUGGCGCCGGCUGGGCACCAUUCCGAGGGGACCGUCCCCUCGGUAACGGCGAAUGGGACCCA  0.578
25. GGCCGGCAUGGUCCCAGCCUCCUCGCUGGCGCCGGCUGGGCACCAUUCCGAGGGGCCCGUCCCCUCGGUAAUGGCGAAUGGGACCCA  0.59
26. GGCCGGCAUGGUCCCAGCCUCCUCGCUGGCGCCGGCUGGGCUACAUUCCGAGGGGACCGGCCCCUCGGUAAUGGCGAAUGGGACCCA  0.615
27. GGCCGGCAUGGUCCCAGCCUCCUCGCUGGCGCCGGCUGGGCACCAUUCCGAGGGGAGCGUCCCCUCGGUAAUGGCGAAUGGGACCCA  0.655
28. GGCCGGCAUGGUCCCAGCCUCCUCGCUGGCGCCGGCUGGGCUACAUUCCGAGGGGACCGUCCCCUCGGUAAUGGCGAAUGGGAACCA  0.655
29. GGCCGGCAUGGUCCCAGCCUCCUCGCUGGCGCCGGCUGGGCACAAUUCCGAGGGGACCGUCCCCUCGGUAAUGGCGAAUGGGACCCA  0.665
30. GGCCGGCAUGGUCCCAGCCUCCUCGCUGGCGCCGGCUGGGCUAUAUUCCGAGGGGACCGUCCCCUCGGUAAUGGCGAAUGGGACCCA  0.674
31. GGCCGGCAUGGUCCCAGCCUCCUCGCUGGCGCCGGCUGGGCUACAUUCCGAGGGGACCGUCUCCUCGGUAAUGGCGAAUGGGACCCA  0.742
32. GGCCGGCAUGGUCCCAGCCUCCUCGCUGGCGCCGGCUGGGCUACAUUCCGAGAGGACCGUCCCCUCGGUAAUGGCGAAUGGGACCCA  0.875

— the RNAGym collection of RNA variant scans (doi:10.7554/elife.80360)
